According to the nanobody polyreactivity screen of Harvey et al. (2022):

assay: yeast display, Sf9 membrane polyspecificity reagent, FACS + sequencing; frameworks hold sequencing errors
How it was run: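 In a synthetic yeast display library (Saccharomyces cerevisiae BJ5465), nanobody expression was induced with galactose for 36–48 hours. FACS gates were set low and high (top ~1%) using anti-HA fluorescence for expression and streptavidin fluorescence for binding of the Sf9 membrane reagent. Each polyreactivity label is drawn from the gate of origin.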

Sequence	polyreactivity (PSR sort gate)
QVQLVESGGGLVQAVGSLRLSCAASGSTFKAYAMGWYRQAPGKERELVAAITKSGGRTYYADSVKGRFTISRDNAKNTVYLQMNSLKPEDTAVYYCAAVFRPDSSAYRYYYLGQGTQVTVSS	high polyreactivity
QVQLVESGGGLVQAVGSLRLSCAASGSTFNRYALGWYRQAPGKERQLVAAITVRGNTYYADSVKGRFTISRDNAKNTVYLQMNSLKPEDTAVYYCAARIYYLYKDRRLGYYWGQGTQVTVSS	high polyreactivity
QVQLVESGGGLVQAVGSLRLSCAASGSTLVYYAMGWYRQAPGKERELVATITRSGGNTYYADSVKGRFTISRDNAKNTVYLQMNSLNPEDTAVYYWAARRLYGSQRGYWGQGTQVTVSS	high polyreactivity
QVQLVESGGGLVQAVGSLRLSCAASGTISVANAMGWYRQAPGKERELVAVINTSGTRTYYADSVKGRFTISRDNAKNTVYLQMNSLKPEDTAVYYCAARLRGVQGYEYWGQGTQVTVSS	low polyreactivity
QVQLVESGGGLVQAVGSLRLSCAASVSTFRHYAMGWYRQAPGKERELVAAISSTGGSTYYADSVKGRFTISRDNAKNTVYLQMNSLKPEDTAVYYCAARRLYWGQGTQVTVSS	high polyreactivity
QVQLVESGGGLVQAVGSLRLSCAPSGRTLNNYTMGWNRPAPGKERELVAAIRWSTGSTYYADSVKGRFTISRDNSKNTVYLQMNSLKPEDTAVYYCNAYRYQWAQSTEYDYWGQGTQVTVSS	high polyreactivity
QVQLVESGGGLVQAVGSLRLSCAPSGSLFPGYAMGWYRQAPGKERELVAAITFSGGSTYYADSVKGRFTISRDYAKQSVYLPMNSLKPEDTAVYYCAAPGWYGGYPSYYYWGQGTQVTVSS	low polyreactivity
QVQLVESGGGLVQAVGSLRLSCAPSGTTFTHYAMGWYRKAPGKERELVAAISWSGGSTYYADSVKGRFTISRDNAKNTVYLQMNSLKQEDCAVYYCKTYGVSYYGSGYYWGQGTQVTVSS	high polyreactivity
QVQLVESGGGLVQAVRSLRLSSAASGLTFGRNAMGWYRQAPGKERELVAAISRSGGRTSYADSVKGRFTISRDNAKNTVYLQMNSLKPEDTAVYYCAARSDVYTHDYWGQGTQVTVSS	high polyreactivity
QVQLVESGGGLVQEGGILRLSCAASGRTFTWYAMEWYRQAPGKERELVAAISFSGGSTYYADSVKGRFTISRDNAKNTVYLQMNSLKPEDSAVYYCARASGDAWEGPRLDYWGQGTQVTVSS	low polyreactivity
QVQLVESGGGLVQEGGSHRLSCAASASTFWSYTMGWYRQAPGKERELVAAISPSGGSTSYADSVKGRFTISRDHAKNTVYLQMNSLKPEDTAVYYGAADDRYGSRYSYWGHGTQVTVSS	high polyreactivity
QVQLVESGGGLVQEGGSIRLSCDASGFIFDVYAIGWYRTAAGKERELVDAISSVGSTYYADSVKGRFTISRDNATNTVYLQMNSLKPEDTAVYYCADVRFYTYNYWGQGTQVTVSS	low polyreactivity
QVQLVESGGGLVQEGGSLRFSCAASGSTFHSYAMGWYRQAPGKERELVAAISTSGGTTYYADSVKGRFTISRDNAKNTVYLQMNSLKPEDTAVYYCAARRVTSPFGTDSWGQGTQVTVSS	low polyreactivity
QVQLVESGGGLVQEGGSLRLICAASGRTFGTNAMGWYRQAPAKERELVAGINYSDGSTYYADSVKGRFTITRDNAKNTVYLQMNSMKPEDTAVYYCAADPGWAWWELNYWGQGTQVTVSS	low polyreactivity
QVQLVESGGGLVQEGGSLRLICAASGRTFYINDMGWYRQAPGKEREFVAAITWSGGSTYYADSVKGRFTISRDNAKNTVYLQMNSLKPEDTAVYYCARPYRGSPRYYYWGQGTQVTVSS	high polyreactivity
QVQLVESGGGLVQEGGSLRLICAASGSTFGVNAMGWYRQAPGKERELVAAISSSGYSTYADSVKGRFTISRDNAKNTVYLQMNSLKPEDTAVYYCNKTTLLTVEYDYWGQGTQVTVSS	low polyreactivity
QVQLVESGGGLVQEGGSLRLRCAASGSIFPYNAMGWYRQAPGKERELVAAISSTGGRTYYADSVKGRFTISRDNAKNTVYLQMNSLKPEDTAVYYCAARLYDKPGFYSWGEGTQVTVSS	high polyreactivity
QVQLVESGGGLVQEGGSLRLSCAASGFIFRGNGMGWYRQAPGKERELVAAIDSTDSKNYADSVKGRFTISRDNAKNTVYLQMNSLKPEDTAVYYCAAGVSWYGPYDYLWFYAFDYWGQGTQVTVSS	low polyreactivity
QVQLVESGGGLVQEGGSLRLSCAASGFILVNYAMGWYRQAPGKEREFVAAISGSGTRTYYADSVKGRFTISRDNAKNTVYLQMNSLKPEDTAVYYCAARVGYRKLYYYWGQGTQVTVSS	high polyreactivity
QVQLVESGGGLVQEGGSLRLSCAASGFTFDSNAMGWYRQAPGKERELVAAISTGGSTYYADSVKGRFTISRDNAKNTVYLQMNSLKPEDTAVYYCARDPPYPDTWYGYWGQGTQVTVSS	low polyreactivity
QVQLVESGGGLVQEGGSLRLSCAASGFTFRANAMGWYRQAPGKERELVAVITGSGRTYYSDSVKGRFTISRDNAKNTVYLQMNRLKPEYTAVYYCAARAAYRVSSAGYDSLGQGTQVTVSS	high polyreactivity
QVQLVESGGGLVQEGGSLRLSCAASGFTFRWYAMGWYRQPPRKERELFAVISSGGRTYYADSVKGRFTISRDNAKNTVYLEKNSLKPEDTAVYSCAAEFTDHYPDYWGYPLYDYWGQGTQVTVSS	high polyreactivity
QVQLVESGGGLVQEGGSLRLSCAASGFTIFQYAMGWYRQAPGKERELVATITSAGSTNYADSVKGRFTISLDNAKNTVYLQMNSLIPEDTAVYYCNTKKLPYAEGYWGQGTQVSVSS	low polyreactivity
QVQLVESGGGLVQEGGSLRLSCAASGGTFRWYTMGWYRQAPGKERELVAAISSTGSTYYADSVKGRFTISRDNAKNTVYLQMNSLKPEDTAVYYCNASYNGKGSWDLDYWGQGTQVTVSS	high polyreactivity
QVQLVESGGGLVQEGGSLRLSCAASGGTFWLYTMGWYRQAPGKERELVAAITKSGGSTYYADSVKGRFTISRDNAKNTVYLQMNSLKPEDTAVYDCAARYSVYRDGYYWGQGTQVTVSS	high polyreactivity
QVQLVESGGGLVQEGGSLRLSCAASGGTFYVNDMGWYRQAPGKERELVATITSGDSTNYADSVKGRFTISRDNAKNTVYLQRNCLKPEDTAVYYCNARGDVIVTPPKFSFNYVYWGQGTQVTVSS	low polyreactivity
QVQLVESGGGLVQEGGSLRLSCAASGIIFLENAMGWYRQAPGKERELVAGISSGGNTNYADSVKARFTISRDNAKNTVYLHMNSLKPEDTAVYYCNARCHRAVPGDELGYWGQGTQLTVSS	low polyreactivity
QVQLVESGGGLVQEGGSLRLSCAASGIIFQRNDMGWYRQAPGKERELVANIRDGGITYADSVKGRFTISRDNAKNTVYLQMNSLKPEDTAVYYCARDDTSPGYGDQSSNAAYYYWGQGTQVTVSS	low polyreactivity
QVQLVESGGGLVQEGGSLRLSCAASGIIFSRYAMGWYRPAPGKERELVAAITRSGGDTYYADSVKGRFTISRDNAKNTVYLQMNSLNPEDTAVYYCAAERTWYPWVATGYYWGQGTQVTVSS	low polyreactivity
QVQLVESGGGLVQEGGSLRLSCAASGINFNVNALGWYKQAPGKERELVARITTSGGSTSYADSVKGRFTISRDNAKNTVYLQMNSLKPDDTAVYYCAADRARYYSEYDYWGQGTQVNVSS	low polyreactivity
